{
  "source": "patent US20230071765A1",
  "about": "“COMPOSITIONS HAVING THIOREDOXIN ACTIVITY AND RELATED METHODS” (ORPRO THERAPEUTICS, INC., priority 2020, published 2023)",
  "key": {"[1]": {"tested_on": "primary HBE cells from CF donors homozygous for F508del", "experiment": "μOCT of MCT rate and CBF in CF primary HBE cells", "assay_type": "cell-based, human", "description": "Primary human bronchial epithelial (HBE) cells were derived from lung explants from healthy failed donors and CF patients homozygous for F508del CFTR. […]\nOne-micron resolution spectral domain μOCT was used to obtain measurements of mucociliary transport (MCT) rate and ciliary beat frequency (CBF) in HBE monolayers and of MCT rate of sputum ex vivo. This first-in-kind, high-speed (40 frames per second, 512 lines per frame) microscopic reflectance imaging modality enables simultaneous anatomic imaging in cell cultures and intact tissues that readily distinguishes the properties of CF compared to normal epithelia (Liu L, Chu K K, Houser G H, Diephuis B J, Li Y, Wilsterman E J, Shastry S, Dierksen G, Birket S E, Mazur M, et al., 2013, Method for quantitative study of airway functional microanatomy using micro-optical coherence tomography, PLoS One 8(1):e54473; Tuggle K L, Birket S E, Cui X, Hong J, Warren J, Reid L, Chambers A, Ji D, Gamber K, Chu K K, et al., 2014, Characterization of defects in ion transport and tissue development in Cystic Fibrosis Transmembrane Conductance Regulator (CFTR)-knockout rats. […] Images were captured, and MCT rate and CBF calculated, as described in the preceding references."}, "[2]": {"molecular_target": "T1, human insulin (Homo sapiens, UniProt P01308)", "T1 construct": "The two chains of human insulin have a total of six Cys residues which form three disulfide bonds in its mature structure", "T1 sequence (P01308 25-54 limits assumed)": "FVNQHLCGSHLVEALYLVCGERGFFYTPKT", "T1 sequence (P01308 90-110 limits assumed)": "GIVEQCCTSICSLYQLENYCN", "experiment": "RP-HPLC insulin reduction assay (conversion of insulin heterodimer)", "assay_type": "biochemical", "details": "for Relative % insulin reduction: relative to maximum", "procedure": "Functional assays 1. Reduction state of ORP100S was quantified using DTNB which reacts with free SH groups resulting in a yellow color change at 412 nm. Fifty microliters of 2.5 mM rhTrx was added to a 96-well plate, followed by 175 microliters of sample buffer and 25 microliters of 6 mM DTNB. After reactions were initiated by the addition of DTNB, change in kinetic absorbance at 412 nm due to DTNB reduction was monitored spectrophotometrically at 30° C. ORP100S concentration was determined by A280 (Nanodrop) using the extinction coefficient of human Trx-1 (7,000). The actual concentrations of free sulfhydryl groups were calculated based on the absorbance at 412 nm and the extinction coefficient of DTNB (14,150) in order to determine the reduction state as percentage of free sulfhydryl. […] 2. Percent of free monomer ORP100S in solution was determined using SEC. Samples were analyzed on a BioBasic S-300 250×4.6 column (Thermo Scientific) run on an Agilent 1100 HPLC system. The SEC-HPLC mobile phase buffer consisted of 40 mM ammonium acetate (pH 5.5), 2 mM EDTA and 450 mM NaCl. Low pH minimized dimerization while the 450 mM NaCl concentration improved resolution. The flow rate was 0.35 mL/min and absorbance was monitored at 280 nm. The length of each run was 20 minutes. The ORP100S monomer percentage was determined by integration of the area under the peak of the monomeric fraction divided by the total area under the curve of the chromatogram. 3. Disulfide bond reduction activity of ORP100S was quantified by assaying the reduction state of a small protein (human insulin) which in its heterodimeric form contains two intermolecular and one intramolecular disulfide, all three of which are known to be suitable thioredoxin substrates. Insulin reduction has classically been used to quantify thioredoxin activity by absorbance change following addition of NADPH and TrxR (Holmgren A., 1979, Thioredoxin catalyzes the reduction of insulin disulfides by dithiothreitol and dihydrolipoamide, J Biol Chem 254:9627-32). Such an approach is not suitable for monothiol C35S thioredoxins ORP-100 and ORP100S due to 1) the lack of cycling resulting from stoichiometric covalent linkage to the disulfide bond substrate and 2) the inability of NADPH and TrxR to reduce Cys32 of the oxidized monothiol Trx active site. Consequently, a new assay was developed based on the use of reverse-phase (RP) HPLC to monitor the rate of conversion of disulfide-bonded insulin heterodimers to monomeric forms. The two chains of human insulin have a total of six Cys residues which form three disulfide bonds in its mature structure. When ORP100S in the reduced form is incubated with dimeric insulin it reacts with these disulfide bonds to disrupt them, simultaneously forming covalent linkages to the ORP100S Cys32. […] The ORP100S samples were incubated with 10 mg/mL insulin for various time points (0-90 min) and the reactions were stopped by addition of iodacetic acid (IA) and trifluoroacetic acid (TFA). Relative activity at each time point was determined from changes in the area under the insulin heterodimer peak following separation over RP-HPLC (Agilent 1100) using an Intrada WP-RP 50×3 (Imtakt) column. Buffer A was 0.1% TFA and Buffer B was 0.1% TFA in acetonitrile. The gradient was […] in 5 min followed by 30 to 60% B in 45 min, then 60 to 80% B for an additional 5 min. The flow rate was 0.2 mL/min and absorbance was measured at 280 nm. In order to evaluate the change in the intact insulin molecule a time 0 baseline was first established using 1 M IA and 0.1% TFA without the addition of ORP100S. The area under the intact insulin heterodimer peak was then determined and set as equivalent to 100%. After the reaction with ORP100S the area of the intact insulin peak (corresponding to retention time) was measured. The percent reduction in intact insulin was then calculated from the decrease in the area following reduction divided by the area at time 0 multiplied by 100."}},
  "data": [
    {"molecule": "ORP100S: thioredoxin with monothiol active site, Cys35 and non-active Cys 62, 69 and 73 substituted with serine (SEQ ID NO:29) (protein, synthetic peptide motif) MVKQIESKTAFQEALDAAGDKLVVVDFSATWCGPSKMIKPFFHSLSEKYSNVIFLEVDVDDSQDVASESEVKSMPTFQFFKKGQKVGEFSGANKEKLEATINELV", "values": [
      {"measurement": "CBF", "setting": "[1]; 3 hrs post treatment", "result": "no meaningful differences"},
      {"measurement": "MCT rate", "setting": "[1]; 3 hrs post-treatment, ORP100S 1-3 mM, DTT 1.6 mM, PBS 7.30±2.9, mean±SE", "result": "54.73±15.3", "unit": "mm/min"},
      {"measurement": "Relative % insulin reduction", "setting": "[2]; Ox:Red 0:100 mixture", "result": 100, "unit": "%"},
      {"measurement": "Relative % insulin reduction", "setting": "[2]; Ox:Red 25:75 mixture", "result": 72, "unit": "%"},
      {"measurement": "Relative % insulin reduction", "setting": "[2]; Ox:Red 50:50 mixture", "result": 51, "unit": "%"},
      {"measurement": "Relative % insulin reduction", "setting": "[2]; Ox:Red 75:25 mixture", "result": 36, "unit": "%"},
      {"measurement": "Relative % insulin reduction", "setting": "[2]; Ox:Red 100:0 mixture", "result": 8, "unit": "%"},
      {"measurement": "maximum insulin heterodimer reaction", "setting": "[2]; fully reduced material, time and conditions used", "result": 45, "unit": "%"}
    ]}
  ]
}
